From patent publication US20070022497A1, “Trans-2-enoyl-coa reductase gene of euglena gracilis” (BASF Plant Science GmbH, priority 2004, published 2007)

T1: trans-2-enoyl-CoA reductase (TER) (Euglena gracilis, UniProt Q5EU90)
T1 construct: One kilogram of Euglena gracilis strain Z cells grown under aerobic conditions for one week was used as starting material; endogenous in cells; host or cells: Euglena gracilis strain Z, aerobically grown; enzyme purified by chromatography (crude extract to Superdex 200)
T1 sequence (Q5EU90 137-539 limits assumed): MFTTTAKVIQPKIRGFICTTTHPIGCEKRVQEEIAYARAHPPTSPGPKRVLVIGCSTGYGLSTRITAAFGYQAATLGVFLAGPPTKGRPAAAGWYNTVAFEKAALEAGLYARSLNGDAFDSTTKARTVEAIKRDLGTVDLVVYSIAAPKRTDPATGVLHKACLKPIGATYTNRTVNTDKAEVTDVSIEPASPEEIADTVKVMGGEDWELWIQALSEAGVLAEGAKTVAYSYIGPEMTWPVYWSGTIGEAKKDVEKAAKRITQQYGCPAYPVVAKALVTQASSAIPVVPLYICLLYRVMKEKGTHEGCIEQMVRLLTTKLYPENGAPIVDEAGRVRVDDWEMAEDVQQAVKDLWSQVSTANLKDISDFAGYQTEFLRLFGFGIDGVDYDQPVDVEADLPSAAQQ

B1: SEQ ID NO: 4: shortened Ter gene ORF; protein SEQ ID NO: 5 with 28 amino acid N-terminal stretch predicted to give mitochondrial targeting (nucleic acid, listed as Euglena gracilis)
DNA: ATGGGCCGCCGCGGGGCCGCAGTGGGCGGCGCCGCTCGTGGCCGCGGCCTCCTCCGCACTGGCGCTGTGGTGGTGAACATCGCCACCGCGGTCACCCACCTGGCCCCCCCGATGGCGATGTTCACCACCACAGCGAAGGTCATCCAGCCCAAGATTCGTGGCTTCATCTGCACGACCACCCACCCGATCGGCTGTGAGAAGCGGGTCCAGGAGGAGATCGCGTACGCCCGTGCCCACCCGCCCACCAGCCCTGGCCCGAAGAGGGTGCTGGTCATCGGCTGCAGTACCGGCTACGGGCTCTCCACCCGCATCACCGCTGCCTTCGGCTACCAGGCCGCCACGCTGGGCGTGTTCCTGGCGGGCCCCCCGACGAAGGGCCGCCCCGCCGCGGCGGGCTGGTACAACACCGTGGCGTTCGAGAAGGCCGCCCTGGAGGCCGGGCTGTACGCCCGGAGCCTTAATGGCGACGCCTTCGACTCCACAACGAAGGCGCGGACGGTCGAGGCGATCAAGCGGGACCTCGGCACGGTGGACCTCGTGGTGTACAGCATCGCCGCCCCGAAGCGGACGGACCCTGCCACCGGCGTCCTCCACAAGGCCTGCCTGAAGCCCATCGGCGCCACGTACACCAACCGCACTGTGAACACCGACAAGGCGGAGGTGACCGACGTCAGCATTGAGCCGGCCTCCCCCGAAGAGATCGCGGACACGGTGAAGGTGATGGGCGGGGAGGACTGGGAGCTCTGGATCCAGGCGCTGTCGGAGGCCGGCGTGCTGGCGGAGGGGGCCAAGACGGTGGCGTACTCCTACATCGGCCCCGAGATGACGTGGCCTGTCTACTGGTCCGGCACCATCGGGGAGGCCAAGAAGGACGTGGAGAAGGCTGCCAAGCGCATCACGCAGCAGTACGGCTGCCCGGCGTACCCGGTGGTGGCCAAGGCCTTGGTCACCCAGGCCAGCTCCGCCATCCCGGTGGTGCCGCTCTACATCTGCCTGCTGTACCGCGTTATGAAGGAGAAGGGCACCCACGAGGGCTGCATCGAGCAGATGGTGCGGCTGCTCACCACGAAGCTGTACCCCGAGAACGGGGCCCCCATCGTCGATGAGGCCGGACGTGTGCGGGTGGATGACTGGGAGATGGCGGAGGATGTGCAGCAGGCTGTTAAGGACCTCTGGAGCCAGGTGAGCACTGCCAACCTCAAGGACATCTCCGACTTCGCTGGGTATCAAACTGAGTTCCTGCGGCTGTTCGGGTTCGGCATTGACGGCGTGGACTACGACCAGCCCGTGGACGTGGAGGCGGACCTCCCCAGTGCTGCCCAGCAGTAG
modifications: CDS (1)..(1329)
B2: ter2-protein: His-tagged truncated TER protein (from aa 136, 45 kDa) expressed in E. coli (protein, listed as Euglena gracilis)
chain: MFTTTAKVIQPKIRGFICTTTHPIGCEKRVQEEIAYARAHPPTSPGPKRVLVIGCSTGYGLSTRITAAFGYQAATLGVFLAGPPTKGRPAAAGWYNTVAFEKAALEAGLYARSLNGDAFDSTTKARTVEAIKRDLGTVDLVVYSIAAPKRTDPATGVLHKACLKPIGATYTNRTVNTDKAEVTDVSIEPASPEEIADTVKVMGGEDWELWIQALSEAGVLAEGAKTVAYSYIGPEMTWPVYWSGTIGEAKKDVEKAAKRITQQYGCPAYPVVAKALVTQASSAIPVVPLYICLLYRVMKEKGTHEGCIEQMVRLLTTKLYPENGAPIVDEAGRVRVDDWEMAEDVQQAVKDLWSQVSTANLKDISDFAGYQTEFLRLFGFGIDGVDYDQPVDVEADLPSAAQQ
modifications: His tag
notes: His-tagged truncated TER protein (from aa 136, 45 kDa) expressed in E. coli

Key:
Arabidopsis thaliana = test: Total seed lipid content of transgenic Arabidopsis plants over-expressing the TER gene (gas chromatography of fatty acids); type: in vivo; conditions: for Total seed lipids, % fatty acids: mean of two extractions, empty vector controls 28.3 ± 0.4
Method: Using floral dip essentially as described by Clough and Bent, 1998, plants are transformed with Agrobacterium tumefaciens C58C1 harboring the plasmid pSUN300-USP-TER-OCS respectively. Entire plants (inflorescence and rosette) are submerged for 20-30 sec in the infiltration media consisting of 5% sucrose, 0.02% Silwet L-77 (Osi Specialties, Danbury, Conn.) and re-suspended transformed A. tumefasciens cells. Plants are then transferred to a growth chamber with a photoperiod of 16 h of light at 21° C. and 8 h of dark at 18° C. (70% humidity) or a similarly air-conditioned greenhouse. The T1 seeds are collected from mature plants. Subsequently transformed plants were identified on selection media by growing T1 seeds on MS-agar plates supplemented with kanamycin (50 μg/ml).
Plant lipids were extracted from plant material as described by Cahoon et al. (1999, Proc. Natl. Acad. Sci. USA 96, 22:12935-12940) and Browse et al. (1986, Anal, Bio-chemistry 442:141-145). Qualitative and quantitative lipid or fatty acid analysis is described in Christie, William W., Advances in Lipid Methodology. Ayr/Scotland :Oily Press.—(Oily Press Lipid Library; Christie, William W., Gas Chromatography and Lipids. A Practical Guide—Ayr, Scotland :Oily Press, 1989 Repr. 1992.—IX,307).
The total lipid content of dry T2 generation seeds from Arabidopsis thaliana plants over-expressing SEQ ID NO: 1, SEQ ID NO: 4 or SEQ ID NO: 6 will be increased compared to the empty vector Arabidopsis thaliana control plants not expressing SEQ ID NO: 1, SEQ ID NO: 4 or SEQ ID NO: 6. As an example the T2 seed lipid content determined by conventional gas chromatography as mg fatty acids per mg dry seeds of the plants overexpressing SEQ ID NO: 4 is given in table 4. Each value is the mean of two separate extractions of the seed of the given line. The control value is the mean of the seeds of 4 empty vector control plants grown simultaneously, each extracted and measured also in duplicate.

[1] = target: T1, trans-2-enoyl-CoA reductase (TER); test: trans-2-enoyl-CoA reductase enzyme activity assay (decrease of absorbance at 340 nm with Crotonyl-CoA and NADH); type: biochemical; conditions: His-Tag protein from ter2-pET28 in E. coli BL21 (DE3), purified via Ni-NTA agarose
Method: Enzyme activity was measured as described by Inui, H. et al. (1984) Eur. J. Biochem. 142: 121-126 with the following modifications. The assay mixture contained 100 mM potassiumphosphate buffer pH 6,2; 0,75 mM Crotonyl-CoA (Sigma); 0,4 mM NADH and 2 μM FAD and enzyme. The assay mixture without substrate was preincubated for 10 min at 30° C. The reaction was also performed at 30° C. and started with the addition of substrate. The activity was determined by the decrease of absorbance at 340 nm. The final assay volume was 1 ml (Ultrospec 2000 Spectrophotometer, Amersham Biosciences) or 200 μl (GENios microplate reader, Tecan Instruments, Maennedorf, Switzerland).

| Molecule | increase in seed storage lipids compared to the controls (Arabidopsis thaliana; independent T2 lines, seed specific promoter, relative to empty pSun300-USP vector controls (FIG. 9)) | Total seed lipids, % fatty acids (Arabidopsis thaliana; transgenic line 7, dry T2 seeds) [%] | Total seed lipids, % fatty acids (Arabidopsis thaliana; transgenic line 10, dry T2 seeds) [%] | Total seed lipids, % fatty acids (Arabidopsis thaliana; transgenic line 22, dry T2 seeds) [%] | Specific activity of purified ter2-protein [1] [nmol/mg/min] |
| --- | --- | --- | --- | --- | --- |
| B1 | at least 10% | 35.5 ± 3.2 | 32.4 ± 1.1 | 31.4 ± 0.9 | – |
| B2 | – | – | – | – | 1510 |
